According to PMC6642535:

Target: Flag-tagged wild-type GAPDH (human) (UniProt P04406)
Experiment: native gel or EMSA; lysates of stable PANC-1 lines (GFP/wild-type GAPDH, GFP-PRMT3/wild-type GAPDH, GFP-PRMT3/R248K-GAPDH) on 10% native gel; tetrameric form

Sequence of Flag-tagged wild-type GAPDH, P04406 1-335 (enzyme; other documents disagree on this pair) (P04406 whole entry): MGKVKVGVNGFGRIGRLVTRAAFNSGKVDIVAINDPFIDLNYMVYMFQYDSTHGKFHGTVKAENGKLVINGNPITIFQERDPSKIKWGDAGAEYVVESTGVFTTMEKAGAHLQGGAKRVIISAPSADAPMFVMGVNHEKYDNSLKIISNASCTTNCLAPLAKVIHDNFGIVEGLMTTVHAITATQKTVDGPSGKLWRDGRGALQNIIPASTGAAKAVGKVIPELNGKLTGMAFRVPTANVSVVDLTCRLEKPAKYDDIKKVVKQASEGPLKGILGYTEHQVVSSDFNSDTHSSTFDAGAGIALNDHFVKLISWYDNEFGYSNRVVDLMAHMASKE

stoichiometry N: 4
Substance: Flag-tagged wild-type GAPDH, P04406 1-335 (enzyme; other documents disagree on this pair)
